From article PMC3728543, “Structure-Based Mechanism for Early PLP-Mediated Steps of Rabbit Cytosolic Serine Hydroxymethyltransferase Reaction” (BioMed Research International, 2013)

Target: the molecule itself
Assay: crystal structure; crystals from 2-3% PEG4000, 20 mM K2HPO4/KH2PO4, 50 mM potassium MES or sodium HEPES pH 7.0, room temperature, protein 50 mg/mL; unliganded or with 60 mM glycine or L-serine; space group P41 with a tetramer per asymmetric unit (T254C-glycine: P41212, a dimer per asymmetric unit)

Protein | stoichiometry N
rabbit cytosolic serine hydroxymethyltransferase, wild type (enzyme, UniProt P07511 1-484, looked up, pyridoxal 5'-phosphate bound as internal aldimine to the epsilon-amino group of Lys257, rabbit cytosolic serine hydroxymethyltransferase (rcSHMT, EC 2.1.2.1); cDNA in the pET22b vector; the wild type probably came the same way; also called rcSHMT; wild type rcSHMT) MATAVNGAPRDAALWSSHEQMLAQPLKDSDAEVYDIIKKESNRQRVGLELIASENFASRAVLEALGSCLNNKYSEGYPGQRYYGGTEHIDELETLCQKRALQAYGLDPQCWGVNVQPYSGSPANFAVYTALVEPHGRIMGLDLPDGGHLTHGFMTDKKKISATSIFFESMAYKVNPDTGYIDYDRLEENARLFHPKLIIAGTSCYSRNLDYGRLRKIADENGAYLMADMAHISGLVVAGVVPSPFEHCHVVTTTTHKTLRGCRAGMIFYRRGVRSVDPKTGKEILYNLESLINSAVFPGLQGGPHNHAIAGVAVALKQAMTPEFKEYQRQVVANCRALSAALVELGYKIVTGGSDNHLILVDLRSKGTDGGRAEKVLEACSIACNKNTCPGDKSALRPSGLRLGTPALTSRGLLEKDFQKVAHFIHRGIELTVQIQDDTGPRATLKEFKEKLAGDEKHQRAVRALRQEVESFAALFPLPGLPGF | 4
rabbit cytosolic serine hydroxymethyltransferase T254C mutant (enzyme, UniProt P07511 1-484, looked up, pyridoxal 5'-phosphate bound to Lys257 (internal aldimine; gem-diamine with glycine or L-serine), rabbit cytosolic serine hydroxymethyltransferase (rcSHMT) with T254C; cDNA in the pET22b vector; numbering is that for rcSHMT; also called T254C rcSHMT) MATAVNGAPRDAALWSSHEQMLAQPLKDSDAEVYDIIKKESNRQRVGLELIASENFASRAVLEALGSCLNNKYSEGYPGQRYYGGTEHIDELETLCQKRALQAYGLDPQCWGVNVQPYSGSPANFAVYTALVEPHGRIMGLDLPDGGHLTHGFMTDKKKISATSIFFESMAYKVNPDTGYIDYDRLEENARLFHPKLIIAGTSCYSRNLDYGRLRKIADENGAYLMADMAHISGLVVAGVVPSPFEHCHVVTTCTHKTLRGCRAGMIFYRRGVRSVDPKTGKEILYNLESLINSAVFPGLQGGPHNHAIAGVAVALKQAMTPEFKEYQRQVVANCRALSAALVELGYKIVTGGSDNHLILVDLRSKGTDGGRAEKVLEACSIACNKNTCPGDKSALRPSGLRLGTPALTSRGLLEKDFQKVAHFIHRGIELTVQIQDDTGPRATLKEFKEKLAGDEKHQRAVRALRQEVESFAALFPLPGLPGF | 4
rabbit cytosolic serine hydroxymethyltransferase T254A mutant (enzyme, UniProt P07511 1-484, looked up, pyridoxal 5'-phosphate bound to Lys257 (internal aldimine; gem-diamine with glycine or L-serine), rabbit cytosolic serine hydroxymethyltransferase (rcSHMT) with T254A; cDNA in the pET22b vector; numbering is that for rcSHMT; also called T254A rcSHMT) MATAVNGAPRDAALWSSHEQMLAQPLKDSDAEVYDIIKKESNRQRVGLELIASENFASRAVLEALGSCLNNKYSEGYPGQRYYGGTEHIDELETLCQKRALQAYGLDPQCWGVNVQPYSGSPANFAVYTALVEPHGRIMGLDLPDGGHLTHGFMTDKKKISATSIFFESMAYKVNPDTGYIDYDRLEENARLFHPKLIIAGTSCYSRNLDYGRLRKIADENGAYLMADMAHISGLVVAGVVPSPFEHCHVVTTATHKTLRGCRAGMIFYRRGVRSVDPKTGKEILYNLESLINSAVFPGLQGGPHNHAIAGVAVALKQAMTPEFKEYQRQVVANCRALSAALVELGYKIVTGGSDNHLILVDLRSKGTDGGRAEKVLEACSIACNKNTCPGDKSALRPSGLRLGTPALTSRGLLEKDFQKVAHFIHRGIELTVQIQDDTGPRATLKEFKEKLAGDEKHQRAVRALRQEVESFAALFPLPGLPGF | 4
